# Assay results taken from article PMC9352680, “A comprehensive thermodynamic model for RNA binding by the Saccharomyces cerevisiae Pumilio protein PUF4”.
# Changes are numbered by the printed parent chain. Names may count otherwise.
# T1: PUF4 RNA-binding domain (Saccharomyces cerevisiae, UniProt P25339 537-888)
# T1 sequence: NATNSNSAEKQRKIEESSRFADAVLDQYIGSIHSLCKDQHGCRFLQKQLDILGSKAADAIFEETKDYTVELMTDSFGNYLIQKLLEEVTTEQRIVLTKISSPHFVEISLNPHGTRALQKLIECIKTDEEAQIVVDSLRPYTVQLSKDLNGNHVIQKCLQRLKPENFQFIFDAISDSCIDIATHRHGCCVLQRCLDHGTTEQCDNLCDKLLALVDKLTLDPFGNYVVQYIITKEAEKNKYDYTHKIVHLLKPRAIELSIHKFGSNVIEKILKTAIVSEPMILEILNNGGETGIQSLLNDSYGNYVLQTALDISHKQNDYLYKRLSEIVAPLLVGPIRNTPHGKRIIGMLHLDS
# B1: Id_ii_S2_P3E.3_K3.2_C3.2_[C-2T]_H3.2_A3.1_F3.1_T3.2_[T9A] (ssRNA)
# RNA: UUUGAUUAAUAUGAUAUCGUUCUUUCUUUUAUAUAUAAAUUCUUUCUCGAUAUCAUAUUAAUCUUU
# B2: Id_ii_S2_P3E.3_K3.2_C3.2_[C-2A]_[T-1C]_H3.2_A3.1_F3.1_T3.2_[T9G]_[A10C] (ssRNA)
# RNA: B1 RNA with U28A, U29C, A38G, A39C
# B3: Id_ii_S2_P3E.3_K3.2_C3.2_[C-2A]_[T-1G]_H3.2_A3.1_F3.1_T3.2_[A10T] (ssRNA)
# RNA: B1 RNA with U28A, U29G, A38U, A39U
# B4: Id_ii_S2_P3E.3_K3.2_C3.2_[C-2T]_H3.2_A3.1_F3.1_T3.2_[A10C] (ssRNA)
# RNA: B1 RNA with A38U, A39C
# B5: Id_ii_S2_P3E.3_K3.2_C3.2_[C-2A]_[T-1C]_H3.2_A3.1_F3.1_T3.2_[T9C]_[A10G] (ssRNA)
# RNA: B1 RNA with U28A, U29C, A38C, A39G
# B6: Id_ii_S2_P3E.3_K3.2_C3.2_[C-2A]_H3.2_A3.1_F3.1_T3.2_[T9C]_[A10C] (ssRNA)
# RNA: B1 RNA with U28A, A38C, A39C
# B7: Id_ii_S2_P3E.3_K3.2_C3.2_[C-2A]_[T-1C]_H3.2_A3.1_F3.1_T3.2_[A10C] (ssRNA)
# RNA: B1 RNA with U28A, U29C, A38U, A39C
# B8: Id_ii_S2_P3E.3_K3.2_C3.2_[C-2A]_[T-1A]_H3.2_A3.1_F3.1_T3.2_[T9G]_[A10C] (ssRNA)
# RNA: B1 RNA with U28A, U29A, A38G, A39C
# B9: Id_ii_S2_P3E.3_K3.2_C3.2_[C-2A]_[T-1C]_H3.2_A3.1_F3.1_T3.2_[T9A] (ssRNA)
# RNA: B1 RNA with U28A, U29C
# B10: Id_ii_S2_P3E.3_K3.2_C3.2_[C-2A]_[T-1A]_H3.2_A3.1_F3.1_T3.2_[A10T] (ssRNA)
# RNA: B1 RNA with U28A, U29A, A38U, A39U
# B11: Id_ii_S2_P3E.3_K3.2_C3.2_[C-2A]_[T-1G]_H3.2_A3.1_F3.1_T3.2_[T9A]_[A10T] (ssRNA)
# RNA: B1 RNA with U28A, U29G, A39U
# B12: Id_ii_S2_P3E.3_K3.2_C3.2_[C-2A]_[T-1G]_H3.2_A3.1_F3.1_T3.2_[T9A]_[A10C] (ssRNA)
# RNA: B1 RNA with U28A, U29G, A39C
# B13: Id_ii_S2_P3E.3_K3.2_C3.2_[C-2A]_[T-1G]_H3.2_A3.1_F3.1_T3.2_[T9A] (ssRNA)
# RNA: B1 RNA with U28A, U29G
# B14: Id_ii_S2_P3E.3_K3.2_C3.2_[C-2T]_H3.2_A3.1_F3.1_T3.2_[A10T] (ssRNA)
# RNA: B1 RNA with A38U, A39U
# B15: Id_ii_S2_P3E.3_K3.2_C3.2_[C-2A]_[T-1A]_H3.2_A3.1_F3.1_T3.2_[T9A]_[A10G] (ssRNA)
# RNA: B1 RNA with U28A, U29A, A39G
# B16: Id_ii_S2_P3E.3_K3.2_C3.2_[C-2A]_[T-1C]_H3.2_A3.1_F3.1_T3.2_[T9C]_[A10T] (ssRNA)
# RNA: B1 RNA with U28A, U29C, A38C, A39U
# B17: Id_ii_S2_P3E.3_K3.2_C3.2_[C-2A]_H3.2_A3.1_F3.1_T3.2_[T9C]_[A10T] (ssRNA)
# RNA: B1 RNA with U28A, A38C, A39U
# B18: Id_ii_S2_P3E.3_K3.2_C3.2_[C-2A]_H3.2_A3.1_F3.1_T3.2_[T9A]_[A10T] (ssRNA)
# RNA: B1 RNA with U28A, A39U
# B19: Id_ii_S2_P3E.3_K3.2_C3.2_[C-2A]_H3.2_A3.1_F3.1_T3.2_[T9C]_[A10G] (ssRNA)
# RNA: B1 RNA with U28A, A38C, A39G
# B20: Id_ii_S2_P3E.3_K3.2_C3.2_[C-2A]_[T-1G]_H3.2_A3.1_F3.1_T3.2_[T9C]_[A10C] (ssRNA)
# RNA: B1 RNA with U28A, U29G, A38C, A39C
# B21: Id_ii_S2_P3E.3_K3.2_C3.2_[C-2A]_[T-1C]_H3.2_A3.1_F3.1_T3.2_[T9C]_[A10C] (ssRNA)
# RNA: B1 RNA with U28A, U29C, A38C, A39C
# Target: T1, PUF4 RNA-binding domain
# Assay: Mg; RNA-MaP; 20 mM Na-HEPES pH 7.4, 30 mM KOAc, 0.75 mM MgCl2, 0.1% Tween-20, 5% glycerol, 0.1 mg/mL BSA, 2 mM DTT; 25 C; 0.0125-409.6 nM protein
# Conditions: tags: N-His6-TEV cleaved; C-SNAP kept, Cy3B-labelled; label: tethered on chip by stalled RNA polymerase
row,Binder,Kd [nM]
1,UCUCUUUGUUUUAAUAUCUCUU (ssRNA) [Ib_S1_P5E.1_K5.1_C5.1_H5.1_[A4T]_A5.1_F5.1_[T8A]_T5.1],73.4
2,B1,925
3,B2,1590
4,B3,407
5,B4,130
6,B5,> 2300
7,B6,322
8,B7,183
9,B8,701
10,B9,290
11,B10,720
12,B11,199
13,B12,1960
14,B13,809
15,B14,78.5
16,B15,1010
17,B16,103
18,B17,214
19,B18,531
20,B19,713
21,B20,1900
22,B21,245
23,UCUCUUUGUAUUAUUGUCUCUU (ssRNA) [Ia_S1_P5E.1_K5.1_C5.1_H5.1_A5.1_F5.1_[A10G]_T5.1],14.8
24,UCUCUUAGUAUUAUAAUCUCUU (ssRNA) [Ib_S1_P5E.1_K5.1_C5.1_H5.1_[T1A]_A5.1_F5.1_[T9A]_T5.1],614
25,UCUCUUCGUAUUAUAAUCUCUU (ssRNA) [Ib_S1_P5E.1_K5.1_C5.1_H5.1_[T1C]_A5.1_F5.1_[T9A]_T5.1],691
